Among the data in paper PMC4139326, “Functional Roles of the Dimer-Interface Residues in Human Ornithine Decarboxylase” (PLoS ONE, 2014) are Kd values, retold here.

Data set [1] addresses antizyme inhibitor (Homo sapiens) (UniProt O14977). The following applies: cited from earlier work.
Data set [2] shares this target. The note with it: cited from earlier work. This is another data set of the same source.
The target in data set [3] is ornithine decarboxylase (Homo sapiens) (UniProt P11926). The following applies: cited from earlier work.
Sequence of ornithine decarboxylase (Homo sapiens) (P11926 whole entry): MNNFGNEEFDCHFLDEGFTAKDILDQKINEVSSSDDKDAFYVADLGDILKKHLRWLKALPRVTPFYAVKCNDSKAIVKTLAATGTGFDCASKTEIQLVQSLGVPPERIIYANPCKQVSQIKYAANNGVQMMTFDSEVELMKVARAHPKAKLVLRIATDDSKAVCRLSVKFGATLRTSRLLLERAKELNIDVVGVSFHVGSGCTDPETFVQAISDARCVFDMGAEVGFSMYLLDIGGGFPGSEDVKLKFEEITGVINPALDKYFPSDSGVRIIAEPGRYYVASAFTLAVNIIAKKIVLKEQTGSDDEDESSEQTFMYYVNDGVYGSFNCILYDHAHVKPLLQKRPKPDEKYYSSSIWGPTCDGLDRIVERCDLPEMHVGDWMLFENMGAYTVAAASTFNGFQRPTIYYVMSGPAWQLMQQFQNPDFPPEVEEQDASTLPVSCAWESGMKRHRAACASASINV
Data set [4] has the same target. The following applies: cited from earlier work. The source holds these as a separate data set.
In data set [5] the target is T1, human antizyme inhibitor (human), O14977.
T1 chain: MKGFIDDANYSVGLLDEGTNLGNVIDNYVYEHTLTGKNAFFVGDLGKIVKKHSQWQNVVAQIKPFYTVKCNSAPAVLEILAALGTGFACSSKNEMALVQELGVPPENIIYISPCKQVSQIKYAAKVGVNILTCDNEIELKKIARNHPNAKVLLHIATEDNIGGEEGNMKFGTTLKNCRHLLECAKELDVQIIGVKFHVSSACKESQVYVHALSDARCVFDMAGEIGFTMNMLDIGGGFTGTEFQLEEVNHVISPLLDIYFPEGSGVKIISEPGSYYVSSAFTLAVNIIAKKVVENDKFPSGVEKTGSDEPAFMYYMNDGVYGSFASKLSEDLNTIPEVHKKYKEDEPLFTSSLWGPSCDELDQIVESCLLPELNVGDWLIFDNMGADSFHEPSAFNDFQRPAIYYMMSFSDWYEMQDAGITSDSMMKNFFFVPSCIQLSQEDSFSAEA
Kind of data set: AUC; sedimentation velocity, 0.3, 0.6 and 0.9 mg/ml protein in 50 mM Tris-HCl pH 7.5, 293 K, 42,000 rpm; global fit to a monomer-dimer equilibrium model (SEDPHAT); dimer to monomers. The note with it: remark: other sources report otherwise.

Data set [6] concerns the molecule itself. The data set is described as above.

Positions count from the first letter of the chain named. Where two headings read alike, the source gives them in different places.

In general, Kd refers to the free concentration of one partner at which half of the binding sites on the other are occupied at equilibrium, for simple one-to-one binding.

For the molecule “antizyme inhibitor (from UniProt O14977)”, the Kd in data set [1] is 84000 nM.

As for antizyme (from UniProt P54368), the figures for the Kd in data set [2] and in data set [3] were 20 nM and 200 nM, respectively.

Turning to “ornithine decarboxylase (from UniProt P11926)”, in data set [4], the equilibrium dissociation constant (Kd) is 180 nM.

B1: human antizyme inhibitor, O14977 1-448 (natural protein)
chain: T1 chain
For B1, the Kd in data set [5] was 72300 nM.

B2: human ornithine decarboxylase K169A (enzyme)
chain: EEFDCHFLDEGFTAKDILDQKINEVSSSDDKDAFYVADLGDILKKHLRWLKALPRVTPFYAVKCNDSKAIVKTLAATGTGFDCASKTEIQLVQSLGVPPERIIYANPCKQVSQIKYAANNGVQMMTFDSEVELMKVARAHPKAKLVLRIATDDSKAVCRLSVAFGATLRTSRLLLERAKELNIDVVGVSFHVGSGCTDPETFVQAISDARCVFDMGAEVGFSMYLLDIGGGFPGSEDVKLKFEEITGVINPALDKYFPSDSGVRIIAEPGRYYVASAFTLAVNIIAKKIVLKEQTGSDDEDESSEQTFMYYVNDGVYGSFNCILYDHAHVKPLLQKRPKPDEKYYSSSIWGPTCDGLDRIVERCDLPEMHVGDWMLFENMGAYTVAAASTFNGFQRPTIYYVMSGPAWQLMQQFQNPDFPP
notes: ornithine decarboxylase (ODC), human; cDNA cloned into pQE30
As for B2, the Kd in data set [6] was 300 ± 8 nM.

B3: human ornithine decarboxylase K294A (enzyme)
chain: B2 chain with A163K, K288A
notes: as for B2
Turning to B3, the Kd in data set [6] turned out to be 100 ± 8 nM.

B4: human ornithine decarboxylase V322D (enzyme)
chain: B2 chain with A163K, V316D
notes: as for B2
As for B4, the Kd in data set [6] was 560 ± 12 nM.

B5: human ornithine decarboxylase R277S (enzyme)
chain: B2 chain with A163K, R271S
notes: as for B2
As for B5, the Kd in data set [6] was determined as 80 ± 6 nM.

B6: human ornithine decarboxylase Y331S (enzyme)
chain: B2 chain with A163K, Y325S
notes: as for B2
Take B6: in data set [6], the Kd was 1100 ± 8 nM.

B7: human ornithine decarboxylase D332E (enzyme)
chain: B2 chain with A163K, D326E
notes: as for B2
As for B7, the Kd in data set [6] came out at 30 ± 7 nM.
